In US5668000A, “Mitochondrial P450” (Sumitomo Chemical Company, Limited, priority 1990, dated 1997):

Assays:
[1] = 25-hydroxylation activity of 1α-hydroxyvitamin D3 in yeast subcellular fractions with added ADX, ADR and NADPH; format: biochemical; conditions: expressed in yeast
Procedure: (§1) A mitochondrial fraction prepared from the strain AH22/pAC25 and a microsomal fraction prepared from the strain AH22/pAMS25 were used for the measurement of hydroxylation activities. Subcellular fractionation was prepared from a transformant yeast strain according to the following method. About 4×10^10 cells were collected from a culture containing about 2×10^7 cells/ml, suspended in Zymolyase solution [10 mM Tris-HCl (pH 7.5), 2.0M sorbitol, 0.1 mM dithiothreitol, 0.1 mM EDTA, 0.3 mg/ml Zymolyase 100T] and incubated at 30° C. for 1 hour to prepare spheroplasts. The spheroplasts were suspended in a sonication buffer (10 mM Tris-HCl (pH 7.5), 0.65M sorbitol, 0.1 mM dithiothreitol, 0.1 mM EDTA, 1 μg/ml leupeptin, 1 μg/ml pepstatin) and homogenized with a Teflon homogenizer to disrupt the cells.
(§2) Precipitate 1 was removed by centrifugation at 3000×g for 5 minutes to give supernatant 1'. Precipitate 1 was resuspended in a sonication buffer, homogenized again, centrifuged at 3000×g for 5 minutes to give precipitate 1 (undisrupted cells and nucleus fractions) and supernatant 1". […]
(§3) Reaction systems (2 ml) shown in the following but NADPH were mixed and preincubated at 37° C. for 5 minutes, and reaction was initiated by the addition of NADPH. […] The benzene layer obtained by centrifugation was dried completely and analyzed by HPLC under the condition listed below. […]

[2] = expressed in yeast
[3] = 27-hydroxylation activity of THC in yeast subcellular fractions with added ADX, ADR and NADPH; format: biochemical; conditions: expressed in yeast
Procedure: as §1, §2, §3

B1: P450c25: rat liver mitochondrial P450c25 expressed in yeast (protein, UniProt P17178 33-533, looked up)
Sterol 26-hydroxylase, …: AIPAALRDHESTEGPGTGQDRPRLRSLAELPGPGTLRFLFQLFLRGYVLHLHELQALNKAKYGPMWTTTFGTRTNVNLASAPLLEQVMRQEGKYPIRDSMEQWKEHRDHKGLSYGIFITQGQQWYHLRHSLNQRMLKPAEAALYTDALNEVISDFIARLDQVRTESASGDQVPDVAHLLYHLALEAICYILFEKRVGCLEPSIPEDTATFIRSVGLMFKNSVYVTFLPKWSRPLLPFWKRYMNNWDNIFSFGEKMIHQKVQEIEAQLQAAGPDGVQVSGYLHFLLTKELLSPQETVGTFPELILAGVDTTSNTLTWALYHLSKNPEIQEALHKEVTGVVPFGKVPQNKDFAHMPLLKAVIKETLRLYPVVPTNSRIITEKETEINGFLFPKNTQFVLCHYVVSRDPSVFPEPESFQPHRWLRKREDDNSGIQHPFGSVPFGYGVRSCLGRRIAELEMQLLLSRLIQKYEVVLSPGMGEVKSVSRIVLVPSKKVSLRFLQRQ
exhibited hydroxylation activities: hydroxylation activity to 1α-hydroxyvitamin D3 [1] | hydroxylation activity to vitamin D3 [2] | hydroxylation activity to THC [3]
